# Experimental data: patent US20080063717A1
# How the values were obtained:
# [1] = target: human NKp30 receptor (human); experiment: cell-based or functional assay
# NKp46 receptor (human) = NKp46 receptor (human) (UniProt O76036); experiment: cell-based or functional assay
# Sequence of UniProt O76036 (O76036 22-304): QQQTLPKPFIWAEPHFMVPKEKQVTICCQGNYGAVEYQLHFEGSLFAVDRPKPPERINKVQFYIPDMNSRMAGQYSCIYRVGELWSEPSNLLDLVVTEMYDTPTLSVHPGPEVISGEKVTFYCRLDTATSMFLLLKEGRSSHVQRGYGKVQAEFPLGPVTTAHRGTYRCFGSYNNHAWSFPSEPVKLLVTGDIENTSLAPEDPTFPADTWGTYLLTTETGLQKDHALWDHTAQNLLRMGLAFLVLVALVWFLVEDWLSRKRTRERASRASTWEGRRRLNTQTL
# Sequence of human NKp30 receptor (human) (chain, as listed by the source limits assumed): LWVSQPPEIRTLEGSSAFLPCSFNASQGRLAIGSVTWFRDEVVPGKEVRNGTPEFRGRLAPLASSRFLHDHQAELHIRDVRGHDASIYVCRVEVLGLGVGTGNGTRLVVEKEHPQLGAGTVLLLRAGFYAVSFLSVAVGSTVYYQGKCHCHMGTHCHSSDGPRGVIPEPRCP
Substance,cells in the culture at day 6 that underwent more than 5 divisions (CFSE) [1],"cells remaining with fluorescence intensity equivalent to resting cells (no division), CFSE, day 6 [1]","dose to obtain 50% of maximum effect (NK cell proliferation from PBMC, titration of antibody with IL-2 and IL-15, 3 donors) [1]","plateau of the antibody's effect on NK cell proliferation (titration with IL-2 and IL-15, 3 donors) [1]","cells remaining with fluorescence intensity equivalent to resting cells (no division), CFSE, day 6 (NKp46 receptor (human))"
AZ20 (anti-NKp30) monoclonal antibody,> 80%,5%,< 0.1 µg/mL,1 µg/mL,–
Bab281 (anti-NKp46) monoclonal antibody,–,–,–,–,11%
